This passage reports Kd, EC50 and OD max results from patent US20240067734A1 (Hoffmann-La Roche, published 2024).

One test deals with T1, hu N(A2B2)A-avi-His (human).
T1 construct: Construct containing the A2 domain of human CEA, with avi and His tags; also called human CEA (A2 domain)
T1 chain: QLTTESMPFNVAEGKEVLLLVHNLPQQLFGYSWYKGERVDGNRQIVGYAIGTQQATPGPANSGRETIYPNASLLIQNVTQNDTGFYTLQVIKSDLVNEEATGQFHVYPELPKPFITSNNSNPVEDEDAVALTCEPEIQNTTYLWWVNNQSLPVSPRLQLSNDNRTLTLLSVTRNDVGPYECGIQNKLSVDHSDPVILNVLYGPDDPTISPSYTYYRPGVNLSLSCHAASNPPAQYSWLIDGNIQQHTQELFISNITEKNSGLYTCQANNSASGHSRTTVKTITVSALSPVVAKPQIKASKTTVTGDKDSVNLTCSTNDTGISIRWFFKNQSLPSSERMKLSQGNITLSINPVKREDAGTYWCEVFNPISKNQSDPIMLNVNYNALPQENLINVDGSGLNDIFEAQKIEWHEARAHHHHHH
In words: SPR Biacore T200; antigen captured via anti-His, bispecific analyte. The procedure: (§1) On a CM5 chip, an anti-penta-His capture antibody (Qiagen Penta-His Antibody, BSA-free; #34660) was immobilized by standard amine coupling on flow cells 2 and 3 at approximately 12′000 RU. […] Regeneration at the level of the anti-H6 tag capture antibody was achieved by 2 pulses of 10 mM glycine/HCl pH 2.0 for 60 s. Data were double-referenced against the unimmobilized flow cell 1 and a zero concentration of the analyte. The sensorgrams of the analytes were fitted to a simple 1:1 Langmuir interaction model.
On the technique in general: SPR reads the build-up and loss of mass on a sensor chip optically.

Another test addresses T2, his avi huNKG2D ECD (human, biotinylated at the avi-tag (in the ELISA)).
T2 construct: Human NKG2D ECD with N-terminal H6-avi tags, forms non-covalent dimers; also called recombinant human NKG2D
T2 chain: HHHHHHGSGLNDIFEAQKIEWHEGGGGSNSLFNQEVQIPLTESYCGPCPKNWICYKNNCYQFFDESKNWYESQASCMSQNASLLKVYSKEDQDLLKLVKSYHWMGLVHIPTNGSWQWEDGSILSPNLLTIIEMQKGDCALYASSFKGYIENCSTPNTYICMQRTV
The description is as above. The method, then: as §1

The target of test [1] is T3, human NKG2D expressed on cells (human, UniProt P26718 1-216).
T3 construct: the cell type is named under assay; also called NKG2D on NK92 cells; HEK293T human NKG2D
T3 chain: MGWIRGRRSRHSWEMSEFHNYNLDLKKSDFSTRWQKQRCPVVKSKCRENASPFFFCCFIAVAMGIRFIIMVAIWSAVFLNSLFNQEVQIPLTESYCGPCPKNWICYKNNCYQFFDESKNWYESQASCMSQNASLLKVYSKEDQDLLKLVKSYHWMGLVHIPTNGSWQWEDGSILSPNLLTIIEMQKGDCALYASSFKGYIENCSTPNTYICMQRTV
In words: flow cytometry; NK92 cells. (In general: In flow cytometry, cells or beads pass a laser one at a time.)

The target of the next test is T4, di muNKG2D ECD Fc avi (murine, biotinylated at the avi-tag).
T4 construct: Dimeric fusion of murine NKG2D ECD to the C-terminus of an avi-tagged human IgG1 Fc; also called recombinant murine NKG2D
T4 sequence (chain, as listed by the source limits assumed): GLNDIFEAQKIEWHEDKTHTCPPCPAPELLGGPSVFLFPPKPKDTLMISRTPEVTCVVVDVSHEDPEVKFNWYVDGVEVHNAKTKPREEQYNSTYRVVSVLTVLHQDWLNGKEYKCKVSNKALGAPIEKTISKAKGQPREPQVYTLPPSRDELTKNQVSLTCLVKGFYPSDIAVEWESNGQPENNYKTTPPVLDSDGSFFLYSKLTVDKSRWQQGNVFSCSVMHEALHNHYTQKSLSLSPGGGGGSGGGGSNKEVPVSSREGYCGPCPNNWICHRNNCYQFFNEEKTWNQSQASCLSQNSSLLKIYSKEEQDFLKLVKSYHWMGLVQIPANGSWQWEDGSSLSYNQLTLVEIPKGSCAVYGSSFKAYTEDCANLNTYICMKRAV
In words: ELISA; biotinylated antigen on streptavidin plate. The procedure:
Nunc streptavidin coated plates (MicroCoat, #11974998001) were coated with 25 μl/well biotinylated his avi huNKG2D ECD (SEQ ID NO: 93) at a concentration of 0.5 μg/ml and incubated at room temperature (RT) for 1 hour. After washing with 3×90 μl/well PBST-buffer (10×PBS, Roche #11666789001+0.1% TWEEN® (polysorbate) 20), 25 μl anti-NKG2D antibodies were added in 1:3 dilutions starting at a concentration of 3 μg/ml or alternatively with a 1:30 dilution of the original sample and incubated 1 h at RT. After washing (3×90 μl/well PBST-buffer), 25 μl/well anti hu kappa chain HRP (horseradish peroxidase)-conjugate (Millipore, #AP502P, 1:2000) was added and incubated at RT for 1 h. After washing (3×90 μl/well PBST-buffer) 25 μl/well TMB (3,3′,5,5′-tetramethylbenzidine) substrate (Roche, #11835033001) was added.
Nunc streptavidin coated plates (MicroCoat, #11974998001) were coated with 25 μl/well biotinylated di muNKG2D ECD Fc avi (SEQ ID NO: 98) at a concentration of 1 μg/ml and incubated at room temperature (RT) for 1 hour. The assay was performed as described above for human NKG2D.
On the technique in general: ELISA stands for enzyme-linked immunosorbent assay.

B1: NKG2D×CEA bispecific antibody in M format, P1AE4972 (395 C50S, non-humanized) / huA5B7 (bispecific antibody, V domains shown)
VH 1: QEQLEQSGGGLVTPGGSLKLCCTASGFDFNTFWMTWVRQAPGKGLEWIGSIHGGSGSRDYASWVNGRFTLSRDIDQSTACLQVNSLTAADTAMYYCARPGYRSWSKTFDLWGQGTMVTVSS
VL 1: DIQMTQSPSSLSASVGDRVTITCRASQDISGALNWYQQKPGKAPNLLIYAASSLQSGVPSRFSGSGSGTDYTLTISSLQPEDFATYYCQQANSFPLTFGGGTKVEIK
VH 2: EVQLLESGGGLVQPGGSLRLSCAASGFTFTDYYMNWVRQAPGKGLEWLGFIGNKANAYTTEYSASVKGRFTISRDKSKNTLYLQMNSLRAEDTATYYCTRDRGLRFYFDYWGQGTTVTVSS
VL 2: EIVLTQSPATLSLSPGERATLSCRASSSVTYIHWYQQKPGQAPRSWIYATSNLASGIPARFSGSGSGTDFTLTISSLEPEDFAVYYCQHWSSKPPTFGQGTKLEIK
notes: also called non-humanized comparator
A word on the Kd: it is the free concentration of one partner at which half of the binding sites on the other are occupied at equilibrium, for simple one-to-one binding. Broadly, the EC50 is the concentration that produces a half-maximal response. The low end stands for higher potency in that assay, the high end for lower potency in that assay. On to B1, for which the Kd was 3.34 nM in the test with hu N(A2B2)A-avi-His and 10.5 nM with his avi huNKG2D ECD. Also, in test [1], the response was half-maximal at 8.47 nM (EC50).

B2: NKG2D×CEA bispecific antibody in M format, P1AE4981 / huA5B7 (bispecific antibody, V domains shown)
VH 1: QEQLQESGPGLVKPSETLSLTCTVSGFDFNTFWMTWIRQPPGKGLEWIGSIHGGSGSRDYNPSLKSRVTISVDIDQNQFSLKLSSVTAADTAVYYCARPGYRSWSKTFDLWGQGTTVTVSS
VL 1: DIQMTQSPSSLSASVGDRVTITCRASQDISGALNWYQQKPGKAPNLLIYAASSLQSGVPSRFSGSGSGTDYTLTISSLQPEDFATYYCQQANSFPLTFGGGTKVEIK
VH 2: EVQLLESGGGLVQPGGSLRLSCAASGFTFTDYYMNWVRQAPGKGLEWLGFIGNKANAYTTEYSASVKGRFTISRDKSKNTLYLQMNSLRAEDTATYYCTRDRGLRFYFDYWGQGTTVTVSS
VL 2: EIVLTQSPATLSLSPGERATLSCRASSSVTYIHWYQQKPGQAPRSWIYATSNLASGIPARFSGSGSGTDFTLTISSLEPEDFAVYYCQHWSSKPPTFGQGTKLEIK
With B2, the equilibrium dissociation constant (Kd) in the test with hu N(A2B2)A-avi-His was determined as 3.23 nM; in the test with his avi huNKG2D ECD, 46.3 nM. The molecule further gave an EC50 in test [1] of 68.2 nM.

B3: NKG2D×CEA bispecific antibody in M format, P1AE4977 / huA5B7 (bispecific antibody, V domains shown)
VH 1: EVQLLESGGGLVQPGGSLRLSCAASGFDFNTFWMTWVRQAPGKGLEWVGSIHGGSGSRDYADSVKGRFTISRDIDQSTAYLQMNSLRAEDTAVYYCARPGYRSWSKTFDLWGQGTTVTVSS
VL 1: DIQMTQSPSSLSASVGDRVTITCRASQDISGALNWYQQKPGKAPNLLIYAASSLQSGVPSRFSGSGSGTDYTLTISSLQPEDFATYYCQQANSFPLTFGGGTKVEIK
VH 2: EVQLLESGGGLVQPGGSLRLSCAASGFTFTDYYMNWVRQAPGKGLEWLGFIGNKANAYTTEYSASVKGRFTISRDKSKNTLYLQMNSLRAEDTATYYCTRDRGLRFYFDYWGQGTTVTVSS
VL 2: EIVLTQSPATLSLSPGERATLSCRASSSVTYIHWYQQKPGQAPRSWIYATSNLASGIPARFSGSGSGTDFTLTISSLEPEDFAVYYCQHWSSKPPTFGQGTKLEIK
Take B3: the Kd in the test with hu N(A2B2)A-avi-His was 3.77 nM; with his avi huNKG2D ECD, 22.9 nM. This molecule also returned an EC50 in test [1] of 19.6 nM.

B4: NKG2D×CEA bispecific antibody in M format, P1AE4973 / huA5B7 (bispecific antibody, V domains shown)
VH 1: EVQLLESGGGLVQPGGSLRLSCAASGFDFNTFWMTWVRQAPGKGLEWVGSIHGGSGSRDYADSVKGRFTISRDNSKNTLYLQMNSLRAEDTAVYYCARPGYRSWSKTFDLWGQGTTVTVSS
VL 1: DIQMTQSPSSLSASVGDRVTITCRASQDISGALNWYQQKPGKAPNLLIYAASSLQSGVPSRFSGSGSGTDYTLTISSLQPEDFATYYCQQANSFPLTFGGGTKVEIK
VH 2: EVQLLESGGGLVQPGGSLRLSCAASGFTFTDYYMNWVRQAPGKGLEWLGFIGNKANAYTTEYSASVKGRFTISRDKSKNTLYLQMNSLRAEDTATYYCTRDRGLRFYFDYWGQGTTVTVSS
VL 2: EIVLTQSPATLSLSPGERATLSCRASSSVTYIHWYQQKPGQAPRSWIYATSNLASGIPARFSGSGSGTDFTLTISSLEPEDFAVYYCQHWSSKPPTFGQGTKLEIK
Regarding B4, the values for the Kd in the test with hu N(A2B2)A-avi-His and with his avi huNKG2D ECD were 2.55 nM and 14.5 nM, respectively. In test [1], this molecule displayed a concentration giving a half-maximal response (EC50) of 17.6 nM.

B5: NKG2D×CEA bispecific antibody in M format, P1AE4979 / huA5B7 (bispecific antibody, V domains shown)
VH 1: QEQLLESGGGLVQPGGSLRLSCAASGFDFNTFWMTWVRQAPGKGLEWVGSIHGGSGSRDYADSVKGRFTISRDIDQSTAYLQMNSLRAEDTAVYYCARPGYRSWSKTFDLWGQGTTVTVSS
VL 1: DIQMTQSPSSLSASVGDRVTITCRASQDISGALNWYQQKPGKAPNLLIYAASSLQSGVPSRFSGSGSGTDYTLTISSLQPEDFATYYCQQANSFPLTFGGGTKVEIK
VH 2: EVQLLESGGGLVQPGGSLRLSCAASGFTFTDYYMNWVRQAPGKGLEWLGFIGNKANAYTTEYSASVKGRFTISRDKSKNTLYLQMNSLRAEDTATYYCTRDRGLRFYFDYWGQGTTVTVSS
VL 2: EIVLTQSPATLSLSPGERATLSCRASSSVTYIHWYQQKPGQAPRSWIYATSNLASGIPARFSGSGSGTDFTLTISSLEPEDFAVYYCQHWSSKPPTFGQGTKLEIK
Regarding B5, the Kd with hu N(A2B2)A-avi-His stood at 5.13 nM; with his avi huNKG2D ECD, 17.2 nM. Besides, the EC50 in test [1] turned out to be 13.1 nM.

B6: NKG2D×CEA bispecific antibody in M format, P1AE4975 / huA5B7 (bispecific antibody, V domains shown)
VH 1: EVQLLESGGGLVQPGGSLRLSCAASGFDFNTFWMTWVRQAPGKGLEWVGSIHGGSGSRDYADSVKGRFTISRDNSKNTAYLQMNSLRAEDTAVYYCARPGYRSWSKTFDLWGQGTTVTVSS
VL 1: DIQMTQSPSSLSASVGDRVTITCRASQDISGALNWYQQKPGKAPNLLIYAASSLQSGVPSRFSGSGSGTDYTLTISSLQPEDFATYYCQQANSFPLTFGGGTKVEIK
VH 2: EVQLLESGGGLVQPGGSLRLSCAASGFTFTDYYMNWVRQAPGKGLEWLGFIGNKANAYTTEYSASVKGRFTISRDKSKNTLYLQMNSLRAEDTATYYCTRDRGLRFYFDYWGQGTTVTVSS
VL 2: EIVLTQSPATLSLSPGERATLSCRASSSVTYIHWYQQKPGQAPRSWIYATSNLASGIPARFSGSGSGTDFTLTISSLEPEDFAVYYCQHWSSKPPTFGQGTKLEIK
On to B6, for which the results for the Kd with hu N(A2B2)A-avi-His and in the test with his avi huNKG2D ECD were 3.66 nM and 18.6 nM, respectively. Moreover, a half-maximal effect in test [1] (EC50) was put at 14.9 nM.

B7: NKG2D×CEA bispecific antibody in M format, P1AE4978 / huA5B7 (bispecific antibody, V domains shown)
VH 1: EVQLVESGGGLVQPGGSLRLSCAASGFDFNTFWMTWVRQAPGKGLEWVGSIHGGSGSRDYADSVKGRFTISADIDQSTAYLQMNSLRAEDTAVYYCARPGYRSWSKTFDLWGQGTTVTVSS
VL 1: DIQMTQSPSSLSASVGDRVTITCRASQDISGALNWYQQKPGKAPNLLIYAASSLQSGVPSRFSGSGSGTDYTLTISSLQPEDFATYYCQQANSFPLTFGGGTKVEIK
VH 2: EVQLLESGGGLVQPGGSLRLSCAASGFTFTDYYMNWVRQAPGKGLEWLGFIGNKANAYTTEYSASVKGRFTISRDKSKNTLYLQMNSLRAEDTATYYCTRDRGLRFYFDYWGQGTTVTVSS
VL 2: EIVLTQSPATLSLSPGERATLSCRASSSVTYIHWYQQKPGQAPRSWIYATSNLASGIPARFSGSGSGTDFTLTISSLEPEDFAVYYCQHWSSKPPTFGQGTKLEIK
For B7, the Kd with hu N(A2B2)A-avi-His stood at 3.84 nM; with his avi huNKG2D ECD, 37.4 nM. Besides, the EC50 in test [1] was found to be 35.5 nM.

B8: anti-NKG2D antibody clone 014 (antibody, V domains shown)
VH: EVQLLESGGGLVQPGGSLRLSCAASGFTFSSYAMSWVRQAPGKGLEWVSRISDGGGTIYYTDSVKGRFTIARDNSKNTLYLEMKSLRAEDTAVYYCAKHRLYDSIGAYAMDVWGQGTTVAVSS
VL: DIQMTQSPSSLSASVGDRVTITCRASQSISSYLNWYQQKPGKAPKLLIYDASNLETGVPSRFSGSGSGTDFTLTISSLQPEDFATYYCQQANSFPLTFGPGTKVDIK
notes: From transgenic rabbits
Consider B8, for which the OD max with di muNKG2D ECD Fc avi was found to be 0.1 OD.
